Measured values published in FireProtDB (doi:10.1006/jmbi.2001.4993).

Conditions: Equus caballus, pH 7, 10 °C, GdnHCl, sodium dithionite 0.5-2 mM, reversible: yes

Sequence of Cytochrome c wild type, P00004 (P00004 whole entry): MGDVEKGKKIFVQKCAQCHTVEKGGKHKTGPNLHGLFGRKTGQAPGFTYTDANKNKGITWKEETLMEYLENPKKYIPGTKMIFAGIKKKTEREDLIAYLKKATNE

Cytochrome c wild type, P00004
denaturant midpoint (higher = more stable) (Absorbance): 5.1 M | unfolding free energy (Absorbance): 18.8 kcal/mol | denaturant midpoint (higher = more stable) (Absorbance, transition: 3): 5.01 M | denaturant midpoint (higher = more stable) (Fluorescence): 5.1 M | unfolding free energy (Fluorescence): 18.8 kcal/mol | denaturant midpoint (higher = more stable) (Fluorescence, transition: 3): 5.02 M
